The values below come from paper PMC5459902 (Scientific Reports, 2017).

In data set [1] the target is T1, PnFPOX (Parastagonospora nodorum, UniProt Q0UIL6).
T1 construct: gene SNOG_08398; His-tagged, pET22b (NdeI/XhoI), E. coli BL21(DE3); HisTrap purified; 49 kDa on SDS-PAGE
T1 sequence (Q0UIL6 1-437): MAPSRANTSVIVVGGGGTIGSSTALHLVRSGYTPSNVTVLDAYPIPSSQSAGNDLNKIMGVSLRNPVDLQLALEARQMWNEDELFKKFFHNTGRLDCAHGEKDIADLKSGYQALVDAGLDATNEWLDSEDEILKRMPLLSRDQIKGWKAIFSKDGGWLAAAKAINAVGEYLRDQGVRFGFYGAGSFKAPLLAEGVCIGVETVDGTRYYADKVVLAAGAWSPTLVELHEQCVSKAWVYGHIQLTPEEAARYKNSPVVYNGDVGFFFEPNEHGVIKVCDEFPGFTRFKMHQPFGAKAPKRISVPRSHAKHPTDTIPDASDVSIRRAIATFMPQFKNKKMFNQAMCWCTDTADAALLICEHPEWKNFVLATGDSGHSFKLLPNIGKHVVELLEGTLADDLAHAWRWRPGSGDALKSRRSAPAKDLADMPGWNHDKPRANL
As to the kind of experiment: X-ray crystal structure, […] Å. The format is binding. Conditions: covalent; bond to Cys343.

Data set [2] relates to CC(C)[C@H](NC[C@@]1(O)OC[C@@H](O)[C@@H](O)[C@@H]1O)C(=O)O. As to the kind of experiment: H2O2 formation, peroxidase-coupled 4-AA/TOOS spectrophotometric assay. The format is biochemical, Parastagonospora nodorum. Conditions: oxidase activity, O2 as electron acceptor, 10 mM potassium phosphate pH 7.0, 298 K, 25.0 °C.
Substrate in data set [3]: CC(C)[C@H](NC[C@@]1(O)OC[C@@H](O)[C@@H](O)[C@@H]1O)C(=O)O
The description is as above. The format is biochemical, Parastagonospora nodorum. Particulars: oxidase activity, O2 as electron acceptor, 10 mM potassium phosphate pH 7.0, 298 K, 25.0 °C. This is another data set of the same source.

For `Cc1cc2nc3c(=O)[nH]c(=O)nc-3n(C[C@H](O)[C@H](O)[C@H](O)COP(=O)(O)OP(=O)(O)OC[C@H]3O[C@@H](n4cnc5c(N)ncnc54)[C@H](O)[C@@H]3O)c2cc1C` [FAD], the “X-ray crystal structure, 1.83 Å” value in data set [1] is “A covalent bond is formed between FAD and Cys343 of PnFPOX”.

In the case of “PnFPOX (Parastagonospora nodorum SN15; D54A/N56A)”, in data set [2], the Michaelis-Menten constant (Km) (usually the substrate concentration at which the rate is half of its maximum) amounted to 14 ± 1.2 µM; the maximal velocity (Vmax) (in general, the top rate of the reaction or transport when substrate is in excess) was 0.078 µmol/min/mg; the Vmax/Km is 5730 µL/min/mg.

“PnFPOX (Parastagonospora nodorum SN15; D54N/N56A)”: the Michaelis constant (Km) in data set [2] was determined as 46 ± 3.7 µM.

B1: PnFPOX (Parastagonospora nodorum SN15) (protein)
chain: T1 sequence (Q0UIL6 1-437)
notes: His-tagged, pET22b (NdeI/XhoI), E. coli BL21(DE3); HisTrap purified; 49 kDa on SDS-PAGE
Turning to B1, in data set [3], the Michaelis constant (Km) stood at 359 ± 6.2 µM, the maximum rate (Vmax) came out at 29.9 µmol/min/mg and the Vmax/Km is 83300 µL/min/mg.
